Laboratory results taken from CN111196852A (SICHUAN KELUN BOTAI BIOMEDICAL CO LTD; ANYUAN MEDICINE TECH …, dated 2020).
Each block holds one binder with its values, some of them ahead of it.

Tests used:
人TIGIT-His = target: T1, 人TIGIT-His (human, UniProt Q495A1 22-141, limits assumed); assay: BLI (ForteBio Octet QK), Human TIGIT(His tag) on Ni-NTA sensor, antibody 3.125-100 nM; order of magnitude only
T1 construct: Loaded on Ni-NTA sensors in the BLI runs; also called Human TIGIT(His tag); not shown: His tag
T1 sequence (looked up): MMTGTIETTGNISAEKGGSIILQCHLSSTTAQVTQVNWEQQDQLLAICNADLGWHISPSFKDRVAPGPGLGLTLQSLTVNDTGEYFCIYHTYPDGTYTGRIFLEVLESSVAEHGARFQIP

人TIGIT = target: T2, 人TIGIT (human, UniProt Q495A1 22-141, limits assumed); assay: ELISA, human TIGIT coated, HRP goat anti-mouse IgG
T2 construct: also called 人TIGIT抗原
T2 sequence (looked up): T1 sequence (looked up)

- Kd (人TIGIT-His): ~10 pM
- EC50 (人TIGIT): ~18 pM
B1: 鼠单克隆抗体Mab21 (antibody, mouse IgG2b, V domains shown)
VH: EVQLQQSGAELVKPGASVRLSCTASGFNIKDTYINWVKQRPEQGLEWIGRIDPANGDTKYAPKFQGKATITTDTSSNTAYLQLSSLTSEDTAVYYCPKSGDYGWYFDVWGAGTTVTVSS
VL: DIVLTQSPASLSVTPGDSVSLSCRASQSISNNLHWYQQKSHESPRLLIKYASQSISGIPSRFSGSGSGTYFTLSINSVETEDFGMYFCQQSNSWLTFGAGTKLELKR
notes: Mouse IgG2b (Kappa), purified from hybridoma #21 on protein G; also called 杂交瘤细胞株#21

- Kd (人TIGIT-His): ~1 pM
- EC50 (人TIGIT): ~18 pM
B2: 鼠单克隆抗体Mab7 (antibody, mouse IgG1, V domains shown)
VH: QVQLQQSGAELVSPGTSVKVSCKASGYAFTNYLIEWIYQRPGQGLEWIGVINPGSGGTIYNEKFKGKATLTADKSSNIAYLQLSSLTSDDSAVYFCAGSYGSSYTFDYWGQGTTLTVSS
VL: DIVMTQSHKFLSTSVGDSVSITCKASQHVSTAVVWYQQKPGQSPKLLIYSPSYRYTGVPDRFTGSGSGTDFTFTISSVQAEDLAVYYCHQHYSTPWTFGGGTKLEIKR
notes: Mouse IgG1 (Kappa), purified from hybridoma #7 on protein G; also called 杂交瘤细胞株#7
